The target of one data set is T1, FrST (Frondihabitans sp., UniProt Z9JZO3RSK1).
T1 construct: synthetic gene in pET28a, E. coli BL21(DE3); His-tag cleaved with thrombin; model 302 residues; catalytic Cys247
Kind of data set: colorimetric ferric thiocyanate assay at […] nm, Michaelis-Menten fit. In kind it is biochemical. Particulars: read-out: Kinetic parameters^* / Km.

The test system of another data set is O=C(O)CCS. Kind of data set: purified protein. In kind it is biochemical, Frondihabitans sp. The note with it: pH 8.0; 25.0 °C.
Another data set deals with O=S(=O)(S)c1ccccc1. Kind of data set: purified protein. In kind it is biochemical, Frondihabitans sp. The note with it: pH 8.0; 25.0 °C.
The next data set deals with O=C(O)C(=O)CS. Kind of data set: purified protein. The note with it: pH 8.0; 25.0 °C. The data set is classed as biochemical, Frondihabitans sp.
A further data set has as its system CC(CS)C(=O)O. Kind of data set: purified protein. In kind it is biochemical, Frondihabitans sp. The note with it: pH 8.0; 25.0 °C.
The test system of a further data set is CS(=O)(=O)S. Kind of data set: purified protein. In kind it is biochemical, Frondihabitans sp. Particulars: pH 8.0; 25.0 °C.
In data set [1] the target is sulfurtransferase FrST from Frondihabitans sp. PAMC28461 (Frondihabitans sp. PAMC28461). Kind of data set: AUC; sedimentation velocity, 20 mM Tris-HCl pH 8.0, 200 mM NaCl, 20°C, 42,000 RPM, 280 nm, SEDFIT.

For the compound `O=S(O)(O)=S` [Sodium thiosulfate], on FrST, the Km is 6.3 ± 0.2 mM.

Turning to FrST (Frondihabitans sp.), the Km in the data set with O=C(O)CCS is 10.7 ± 1.3 mM; with O=S(=O)(S)c1ccccc1 it was 6.1 ± 0.9 mM; in the data set with O=C(O)C(=O)CS, 13.9 ± 2.6 mM; with CC(CS)C(=O)O, 4.1 ± 0.4 mM; in the data set with CS(=O)(=O)S it was 6.0 ± 0.3 mM. Moreover, the maximum rate (Vmax) (usually the rate approached at saturating substrate) in the data set on O=C(O)CCS is 43.7 µmol/min/mg; with O=S(=O)(S)c1ccccc1, 7810 µmol/min/mg; with O=C(O)C(=O)CS, 150 µmol/min/mg; in the data set with CC(CS)C(=O)O, 17.8 µmol/min/mg; in the data set with CS(=O)(=O)S, 1490 µmol/min/mg. In addition, the kcat/Km (commonly the turnover number divided by the Michaelis constant) is 250 M⁻¹ s⁻¹ in the data set on O=C(O)CCS; 73000 M⁻¹ s⁻¹ in the data set with O=S(=O)(S)c1ccccc1; 610 M⁻¹ s⁻¹ in the data set with O=C(O)C(=O)CS; 240 M⁻¹ s⁻¹ with CC(CS)C(=O)O; 14200 M⁻¹ s⁻¹ in the data set with CS(=O)(=O)S.

For “sulfurtransferase FrST from Frondihabitans sp. PAMC28461 (enzyme)”, the stoichiometry N – broadly, the number of molecules, sites or subunits per partner or assembly – in data set [1] stood at 2.

These data come from PMC10962793, “Structural and functional characterization of sulfurtransferase from Frondihabitans sp. PAMC28461” (PLOS ONE, 2024).
